Key:
[1] = target: Human PAD4 (enzyme inhibition assays) (human, UniProt Q9UM07 1-663, limits assumed); assay: cell-based or functional assay
[2] = target: T1, biotin-labeled human PAD4 protein (human, UniProt Q9UM07 1-663, biotin on the Avi tag (biotin ligase BirA)); assay: SPR, Biacore T200, biotin-labeled human PAD4 captured on chip, IgG as analyte
T1 construct: also called Avi tag-human PAD4; biotin-labeled PAD4; not shown: Avi tag left on the N-terminal side after the GST tag was cleaved with PreScission Protease
T1 sequence (Q9UM07 whole entry): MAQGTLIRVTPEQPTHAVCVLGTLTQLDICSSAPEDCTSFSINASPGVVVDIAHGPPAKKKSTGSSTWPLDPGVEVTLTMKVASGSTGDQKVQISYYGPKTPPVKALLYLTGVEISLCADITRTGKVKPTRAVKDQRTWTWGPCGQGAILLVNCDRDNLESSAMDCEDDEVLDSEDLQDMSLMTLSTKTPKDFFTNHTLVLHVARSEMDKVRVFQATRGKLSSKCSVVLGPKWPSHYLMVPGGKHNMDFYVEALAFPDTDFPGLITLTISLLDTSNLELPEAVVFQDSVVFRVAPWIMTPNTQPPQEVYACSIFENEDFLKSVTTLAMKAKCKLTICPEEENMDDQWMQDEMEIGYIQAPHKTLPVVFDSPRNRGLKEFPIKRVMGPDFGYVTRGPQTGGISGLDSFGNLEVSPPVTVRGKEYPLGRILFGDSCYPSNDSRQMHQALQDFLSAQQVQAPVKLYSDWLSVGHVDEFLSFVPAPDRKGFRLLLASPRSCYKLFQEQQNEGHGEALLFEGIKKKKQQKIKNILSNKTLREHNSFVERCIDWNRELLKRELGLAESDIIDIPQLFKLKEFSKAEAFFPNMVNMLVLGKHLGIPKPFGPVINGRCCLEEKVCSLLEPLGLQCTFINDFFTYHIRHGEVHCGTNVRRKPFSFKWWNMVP

[3] = target: T1, biotin-labeled human PAD4 protein; assay: SPR, Biacore T200, biotin-labeled human PAD4 captured on chip, antibody as analyte, single-cycle, 1:1 model
Experimental: A biotin-labeled human PAD4 protein was immobilized on a sensor chip using a Biotin Capture Kit (GE Healthcare). The PAD4 protein was prepared to 0.5 μg/mL using HBS-EP+ and used as a ligand solution. The ligand solution was added to a flow cell at a flow rate of 10 μL/min for 30 seconds, and then HBS-EP+ was added for 60 seconds. A flow cell to which no ligand solution was added was used as a reference cell. The test antibody was prepared from several hundred pM to several nM using HBS-EP+ and used as an analyte solution. Further, a running buffer solution was used as a blank solution. The blank solution or the analyte solution was added at a flow rate of 30 μL/min for 180 seconds using a single-cycle method, and a dissociation time was 1200 seconds. A sensorgram of the reference cell is subtracted from a sensorgram of the flow cell to which the ligand was added when the blank solution or the analyte solution was added, and further, a sensorgram to which the blank solution was added was subtracted from the sensorgram to which the analyte solution was added, and the result was used for analysis. Binding parameters were calculated using a 1:1 binding model using Biacore T200 Evaluation software (GE Healthcare). […] The dissociation constants of the antibodies 2-1-47, 3-1-39, 3-2-37, and 4-2-25 with improved complementarity determining regions with respect to human PAD4 protein were respectively 31, 48, 73, and 20 pM.

[4] = target: T2, human PAD4 (Cayman Chemical company, Cat 10500) (human, UniProt Q9UM07 1-663); assay: SPR, Biacore T200, antibody captured on Protein A chip, 50 nM human PAD4 as analyte; antigen binding amount divided by antibody binding amount
T2 construct: Bought protein
T2 sequence (Q9UM07 whole entry): as above
Experimental: In order to investigate an antigen-binding ability after the storage, antigen-binding activity measurements were performed using a surface plasmon resonance apparatus Biacore T200 (GE Healthcare). Cryopreserved test antibodies and test antibodies stored at 4° C. or 40° C. for 4 weeks were prepared to 10 μg/mL using a running buffer solution HBS-EP+. Using a Series S Sensorchip Protein A (GE Healthcare), a test antibody solution was added to a flow cell 2 at a flow rate of 10 μL/min for 60 seconds and immobilized on a sensor chip. A flow cell 1 was used as a reference cell. A binding amount 55 seconds after the completion of the addition of the test antibody to the flow cell 2 was subtracted from a binding amount of the flow cell 1 to obtain an antibody binding amount. Next, human PAD4 (Cayman Chemical company, Cat 10500) was prepared to 50 nM using HBS-EP+ and used as an analyte solution. The analyte solution was added at a flow rate of 30 μL/min for 120 seconds to obtain a sensorgram of a bound phase. A binding amount 5 seconds before the completion of the addition of the analyte solution to the flow cell 2 was subtracted from a binding amount of the flow cell 1 to obtain an antigen binding amount. Subsequently, a running buffer solution was added for 180 seconds to obtain a sensorgram of a dissociated phase. The measurements were performed at 25° C. The antibody binding amount and the antigen binding amount were calculated using a data analysis program (GE Healthcare, Biacore T200 Evaluation Software v3.1), and the antigen binding amount under each condition was divided by the antibody binding amount to obtain a relative antigen binding amount. There was no change between the relative antigen-binding amount of a cryopreserved test antibody and the relative antigen-binding amount of a test antibody stored at 4° C. The relative antigen-binding amounts of various test antibodies stored at 40° C. for 4 weeks were compared to the relative antigen-binding amounts of the test antibodies stored at 4° C. for 4 weeks, and the antigen-binding activities were determined.

[5] = target: T1, biotin-labeled human PAD4 protein; assay: SPR, Biacore T200, biotin-labeled human PAD4 captured on chip, antibody as analyte, single-cycle, 1:1 model; remark: listed apart in the source
Experimental: Binding affinities of the test antibodies G8 and G8ss with respect to human PAD4 proteins were determined by measuring a dissociation constant (KD) in HBS-EP+ using a surface plasmon resonance apparatus Biacore T200 (GE Healthcare). A biotin-labeled human PAD4 protein was immobilized on a sensor chip using a Biotin Capture Kit (GE Healthcare). The PAD4 protein was prepared to 0.25 μg/mL using HBS-EP+ and used as a ligand solution. The ligand solution was added to a flow cell at a flow rate of […] for 30 seconds, and then HBS-EP+ was added for 60 seconds. A flow cell to which no ligand solution was added was used as a reference cell. The test antibody was prepared from several hundred pM to several nM using HBS-EP+ and used as an analyte solution. Further, a running buffer solution was used as a blank solution. The blank solution or the analyte solution was added at a flow rate of 30 μL/min for 180 seconds using a single-cycle method, and a dissociation time was 1200 seconds. A sensorgram of the reference cell is subtracted from a sensorgram of the flow cell to which the ligand was added when the blank solution or the analyte solution was added, and further, a sensorgram to which the blank solution was added was subtracted from the sensorgram to which the analyte solution was added, and the result was used for analysis. Binding parameters were calculated using a 1:1 binding model using Biacore T200 Evaluation software (GE Healthcare).

Chain of Human PAD4 (enzyme inhibition assays) (Q9UM07 whole entry): as above

| Binder | IC50, human PAD4 enzyme inhibitory activity (citrullination of BAEE, colorimetric) [1] [nM] | Kd [2] [nM] | koff [2] [s⁻¹] | kon [2] [M⁻¹ s⁻¹] | Kd [3] [nM] | koff [3] [s⁻¹] | kon [3] [M⁻¹ s⁻¹] | antigen-binding activity after storage at 40° C. for 4 weeks, relative to storage at 4° C. [4] [%] | Kd [5] [nM] | koff [5] [s⁻¹] | kon [5] [M⁻¹ s⁻¹] |
| --- | --- | --- | --- | --- | --- | --- | --- | --- | --- | --- | --- |
| Lib2(4R)-1-47 (antibody, V domains shown, Tested as full-length antibody (human IgG1/human k) from Expi293; also called Lib(4R)-1-47) VH: EVQLLESGGGLVQPGGSLRLSCAASGFTFSTYAMGWVRQAPGKGLEFVAAIRNDGSWTGYGTPYKTRFTISRDNSKNTLYLQMNSLRAEDTAVYYCAKYTGSSGGSIGAWGQGTLVTVSS VL: SYELTQPPSVSVSPGQTARITCSGGNRNYYYGWYQQKPGQAPVTVIYANDKRPSGIPERFSGSNSGSTTTLTISGVQAEDEADYYCGTATTGKYVFGGGTKLTVLG | 9.6 | 0.0175 | 0.000164 | 9.39e+06 |  |  |  |  |  |  |  |
| anti-PAD4 antibody 2-1-47 (antibody, human IgG1, lambda, V domains shown, Lib2(4R)-1-47 with the 84th asparagine of the heavy chain substituted with serine; full-length IgG from ExpiCHO) VH: EVQLLESGGGLVQPGGSLRLSCAASGFTFSTYAMGWVRQAPGKGLEFVAAIRNDGSWTGYGTPYKTRFTISRDNSKNTLYLQMSSLRAEDTAVYYCAKYTGSSGGSIGAWGQGTLVTVSS VL: SYELTQPPSVSVSPGQTARITCSGGNRNYYYGWYQQKPGQAPVTVIYANDKRPSGIPERFSGSNSGSTTTLTISGVQAEDEADYYCGTATTGKYVFGGGTKLTVLG | 12.2 |  |  |  | 0.031 | 0.000507 | 1.61e+07 | 95.6 |  |  |  |
| humanized anti-PAD4 antibody G8 (antibody, human IgG1, lambda, V domains shown, Full-length IgG, described in WO 2016/143753; also called test antibody G8; parent clone G8) VH: not shown VL: SYELTQPPSVSVSPGQTARITCSGGNRNYYYGWYQQKPGQAPVTVIYANDKRPSGIPERFSGSNSGSTTTLTISGVQAEDEADYYCGTADTGKYVFGGGTKLTVLG | 21.6 | 0.208 | 0.00146 | 7.03e+06 |  |  |  |  | 0.214 | 0.00165 | 7.7e+06 |
| anti-PAD4 antibody 3-2-37 (antibody, human IgG1, lambda, V domains shown, Lib1(6R)-2-37 with the 84th asparagine of the heavy chain substituted with serine; full-length IgG from ExpiCHO) VH: EVQLLESGGGLVQPGGSLRLSCAASGFTFSTYAMGWVRQAPGKGLEFVAAIRNDGSWTGIGYNQKSRFTISRDNSKNTLYLQMSSLRAEDTAVYYCGKYTGSSGGSIGAWGQGTLVTVSS VL: SYELTQPPSVSVSPGQTARITCSGGNRNYYYGWYQQKPGQAPVTVIYANDKRPSGIPERFSGSNSGSTTTLTISGVQAEDEADYYCGTALTGKYVFGGGTKLTVLG | 15.3 |  |  |  | 0.073 | 0.000617 | 8.51e+06 | 94.7 |  |  |  |
| Lib2(5R)-2-25 (antibody, human IgG1, lambda, V domains shown, Tested as full-length antibody (human IgG1/human k) from Expi293) VH: EVQLLESGGGLVQPGGSLRLSCAASGFTFSTYAMGWVRQAPGKGLEFVAAIRNDGSWTGYPPPLKGRFTISRDNSKNTLYLQMNSLRAEDTAVYYCAKYTGSSGGSIGAWGQGTLVTVSS VL: SYELTQPPSVSVSPGQTARITCSGGNRNYYYGWYQQKPGQAPVTVIYANDKRPSGIPERFSGSNSGSTTTLTISGVQAEDEADYYCGTAYTGKYVFGGGTKLTVLG | 8.3 | 0.0158 | 0.000202 | 1.28e+07 |  |  |  |  |  |  |  |
| anti-PAD4 antibody 4-2-25 (antibody, human IgG1, lambda, V domains shown, Lib2(5R)-2-25 with the 84th asparagine of the heavy chain substituted with serine; full-length IgG from ExpiCHO) VH: EVQLLESGGGLVQPGGSLRLSCAASGFTFSTYAMGWVRQAPGKGLEFVAAIRNDGSWTGYPPPLKGRFTISRDNSKNTLYLQMSSLRAEDTAVYYCAKYTGSSGGSIGAWGQGTLVTVSS VL: SYELTQPPSVSVSPGQTARITCSGGNRNYYYGWYQQKPGQAPVTVIYANDKRPSGIPERFSGSNSGSTTTLTISGVQAEDEADYYCGTAYTGKYVFGGGTKLTVLG | 7.6 |  |  |  | 0.02 | 0.000299 | 1.47e+07 | 97 |  |  |  |
| humanized anti-PAD4 antibody G8ss (antibody, human IgG1, lambda, V domains shown, G8 with the 84th asparagine of the heavy chain substituted with serine; full-length IgG; also called test antibody G8ss) VH: not shown VL: SYELTQPPSVSVSPGQTARITCSGGNRNYYYGWYQQKPGQAPVTVIYANDKRPSGIPERFSGSNSGSTTTLTISGVQAEDEADYYCGTADTGKYVFGGGTKLTVLG | 20.3 |  |  |  | 0.199 | 0.00122 | 6.15e+06 | 82.2 | 0.276 | 0.00176 | 6.37e+06 |
| anti-PAD4 antibody 3-1-39 (antibody, human IgG1, lambda, V domains shown, Lib1(6R)-1-39 with the 84th asparagine of the heavy chain substituted with serine; full-length IgG from ExpiCHO) VH: EVQLLESGGGLVQPGGSLRLSCAASGFTFSTYAMGWVRQAPGKGLEFVAAIRNDGSWTGTSVNAKTRFTISRDNSKNTLYLQMSSLRAEDTAVYYCAKYTGSSGGSIGAWGQGTLVTVSS VL: SYELTQPPSVSVSPGQTARITCSGGNRNYYYGWYQQKPGQAPVTVIYANDKRPSGIPERFSGSNSGSTTTLTISGVQAEDEADYYCGTATTGKYVFGGGTKLTVLG | 8.8 |  |  |  | 0.048 | 0.000626 | 1.3e+07 | 93.9 |  |  |  |
| Lib1(6R)-1-39 (antibody, human IgG1, lambda, V domains shown, Tested as full-length antibody (human IgG1/human k) from Expi293) VH: EVQLLESGGGLVQPGGSLRLSCAASGFTFSTYAMGWVRQAPGKGLEFVAAIRNDGSWTGTSVNAKTRFTISRDNSKNTLYLQMNSLRAEDTAVYYCAKYTGSSGGSIGAWGQGTLVTVSS VL: SYELTQPPSVSVSPGQTARITCSGGNRNYYYGWYQQKPGQAPVTVIYANDKRPSGIPERFSGSNSGSTTTLTISGVQAEDEADYYCGTATTGKYVFGGGTKLTVLG | 8.7 | 0.0183 | 0.000108 | 5.9e+06 |  |  |  |  |  |  |  |
| Lib1(6R)-2-37 (antibody, human IgG1, lambda, V domains shown, Tested as full-length antibody (human IgG1/human k) from Expi293) VH: EVQLLESGGGLVQPGGSLRLSCAASGFTFSTYAMGWVRQAPGKGLEFVAAIRNDGSWTGIGYNQKSRFTISRDNSKNTLYLQMNSLRAEDTAVYYCGKYTGSSGGSIGAWGQGTLVTVSS VL: SYELTQPPSVSVSPGQTARITCSGGNRNYYYGWYQQKPGQAPVTVIYANDKRPSGIPERFSGSNSGSTTTLTISGVQAEDEADYYCGTALTGKYVFGGGTKLTVLG | 13.4 | 0.0358 | 0.000361 | 1.01e+07 |  |  |  |  |  |  |  |

— patent US20240309112A1 (MITSUBISHI TANABE PHARMA, published 2024)
